Assay in all cases: SPR
(In general: In SPR one partner is held on a chip, and binding of the other changes the refractive index at the surface.)

In assay [1] the target is T1, Recombinant integrin αvβ3 (UniProt P06756 31-1048; P05106 27-718).
T1 chain 1: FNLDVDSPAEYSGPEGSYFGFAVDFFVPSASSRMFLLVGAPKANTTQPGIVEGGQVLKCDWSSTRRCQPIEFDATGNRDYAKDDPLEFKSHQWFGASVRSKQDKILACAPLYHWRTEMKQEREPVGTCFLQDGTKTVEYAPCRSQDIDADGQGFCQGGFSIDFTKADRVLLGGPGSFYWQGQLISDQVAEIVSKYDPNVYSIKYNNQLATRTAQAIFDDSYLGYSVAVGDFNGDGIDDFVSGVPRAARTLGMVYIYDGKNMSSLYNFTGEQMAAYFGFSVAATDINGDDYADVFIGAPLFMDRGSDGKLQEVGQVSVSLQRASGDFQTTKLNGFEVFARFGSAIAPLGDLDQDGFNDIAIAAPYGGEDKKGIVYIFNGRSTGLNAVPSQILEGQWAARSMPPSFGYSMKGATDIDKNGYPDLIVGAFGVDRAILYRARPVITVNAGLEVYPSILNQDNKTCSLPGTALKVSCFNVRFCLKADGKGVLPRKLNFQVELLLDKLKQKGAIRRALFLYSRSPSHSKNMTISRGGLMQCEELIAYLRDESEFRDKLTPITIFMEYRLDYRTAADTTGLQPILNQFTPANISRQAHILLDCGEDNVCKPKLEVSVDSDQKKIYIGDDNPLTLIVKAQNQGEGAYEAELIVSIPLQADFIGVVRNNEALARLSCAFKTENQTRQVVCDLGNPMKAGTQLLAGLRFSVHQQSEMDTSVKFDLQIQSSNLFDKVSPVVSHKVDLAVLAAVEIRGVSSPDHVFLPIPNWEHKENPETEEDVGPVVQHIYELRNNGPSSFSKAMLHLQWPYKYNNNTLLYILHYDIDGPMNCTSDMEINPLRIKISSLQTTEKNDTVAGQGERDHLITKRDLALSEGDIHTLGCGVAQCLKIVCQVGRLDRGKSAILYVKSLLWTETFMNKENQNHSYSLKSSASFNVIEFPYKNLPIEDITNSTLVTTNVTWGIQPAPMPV
T1 chain 2: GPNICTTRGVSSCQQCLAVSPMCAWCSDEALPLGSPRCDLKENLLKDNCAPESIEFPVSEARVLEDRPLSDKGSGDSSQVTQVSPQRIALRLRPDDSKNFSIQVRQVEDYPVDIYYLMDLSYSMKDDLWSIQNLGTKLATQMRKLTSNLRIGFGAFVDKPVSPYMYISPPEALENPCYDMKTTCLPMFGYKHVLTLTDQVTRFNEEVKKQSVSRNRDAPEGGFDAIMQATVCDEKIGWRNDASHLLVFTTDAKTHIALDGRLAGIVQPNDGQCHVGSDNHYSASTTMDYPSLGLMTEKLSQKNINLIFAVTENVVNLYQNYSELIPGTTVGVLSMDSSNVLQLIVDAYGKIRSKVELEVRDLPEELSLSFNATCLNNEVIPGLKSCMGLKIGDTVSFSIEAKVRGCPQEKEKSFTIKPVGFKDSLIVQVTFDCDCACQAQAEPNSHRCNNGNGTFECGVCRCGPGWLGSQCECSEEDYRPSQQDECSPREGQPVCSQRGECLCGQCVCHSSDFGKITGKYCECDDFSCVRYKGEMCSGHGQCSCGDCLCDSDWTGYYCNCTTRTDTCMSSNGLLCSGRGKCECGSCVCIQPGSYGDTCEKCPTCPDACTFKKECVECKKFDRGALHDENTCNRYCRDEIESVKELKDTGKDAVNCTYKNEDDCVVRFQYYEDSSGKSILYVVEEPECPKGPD

In assay [2] the target is T2, Recombinant B7-H4 (UniProt Q7Z7D3 25-259, N-glycans, including high mannose glycans through which PFL binds).
T2 chain: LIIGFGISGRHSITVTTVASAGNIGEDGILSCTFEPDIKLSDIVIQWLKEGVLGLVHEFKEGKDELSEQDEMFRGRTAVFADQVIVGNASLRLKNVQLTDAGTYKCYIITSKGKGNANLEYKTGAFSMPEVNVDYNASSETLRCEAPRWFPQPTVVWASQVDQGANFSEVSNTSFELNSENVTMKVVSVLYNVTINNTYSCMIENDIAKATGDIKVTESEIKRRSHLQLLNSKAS

The target in assay [3] is T1, Recombinant integrin αvβ3.
Assay [4] concerns the target T2, Recombinant B7-H4.

B1: Pseudomonas fluorescens lectin (PFL) (natural protein)
chain: MSKYAVANQWGGSSAPWHPGGTWVLGARDNQNVVAIEIKSGDGGKSFTGTMTYAGEGPIGFKAQRTGQNQYNVENQWGGNDAPWHPGGKWVIGGRDNQNVIALSVTSSDGGKNLSGTNTYANEGPIGFRGQIE
With B1, the values for the koff (in assay [1]; in the assay with Recombinant B7-H4 [2]) were 8.69e-06 s⁻¹ and 0.00043 s⁻¹, respectively. Besides, the Kd (usually the equilibrium constant for the complex coming apart) stood at 1.65 nM in assay [3] and 5.35 nM with Recombinant B7-H4 [4].

The record behind these values is PMC6562446 (2019).
